Test results taken from paper PMC12697983 (PLOS Pathogens, 2025).

Biological target: SARS-CoV-2 wild-type spike receptor-binding domain (WT-RBD) (SARS-CoV-2, UniProt P0DTC2)
Test: SPR
Settings: both partners purified

B1: 1C4 (murine monoclonal antibody, IgG format) (antibody, V domains shown)
VH: QIQLVQSGPELKKPGETVKISCKASGYTFTDYGLNWVKQAPGKGLKWMGWINTYSGEPTYNDEFRGRFAFSLETSTITAYLKINNLKNEDTATYFCARGGNWDWYFDVWGAGTTVTVSS
VL: DIVLTQSPATLSVTPGDNVSLSCRASQIISNNLHWYQQKSHESPRLLIKYASQSISGIPSRFSGSGSGTDFTLSINSVETEDFGMYFCQQSNTWPLTCGSGTKLELN
**Q.** Which Kd does the source give for B1 here?
**A.** 0.488 nM
